From patent US20190002549A1 (I MAB BIOPHARMA, published 2019)

B1: 50C5 (antibody, V domains shown)
VH: QVQLQQSAAELVRPGASVKMSCKASGYIFTPYSIHWIKQRPGQGLEWIGYINPSTGYIEYNQHFKDRTTLTADKSSSTAYMQLRSLTSEDSAVYYCARGGDYEGYFDYWGQGTTLTVSS
VL: DIQMTQSPDSLSASVGETVTITCRLNENIYSFLAWYQQRQGKSPQLLVYNAETLAEDVPSRFSGSGSGTQFSLKISSLQTDDFGTYYCQQHYGTPYTFGGGTNLEIE
notes: Mouse monoclonal antibody from a hybridoma; also called 5005 (misprint of 50C5); murine antibody 50C5
B2: 23F4 (antibody, V domains shown)
VH: QVQLQQSGPELVKPGTSMKISCKTSDYTLTSHYLHWVKQRPGQGLEWIGWIFPGDDKTKYNEKFKGKATLTSDKTSNTAYMQLSSLTSEESAVYFCARGTKYLNWNFDVWGTGTTVTVSS
VL: DIVLTQPQKFLSTSVGDRVSVTCKANQNVGTTLAWYQQKPGQSPKALIYSASYRYSGVPDRFTGSGSGTDFTLTISNVQSEDLAEYFCHQYTTYPLTFGGGTKLEIK
notes: Mouse monoclonal antibody from a hybridoma; also called 23F4 antibody; murine antibody 23F4

Experiments:
[1] = target: T1, recombinant human GM-CSF protein (human, UniProt P04141 18-144); experiment: cell-based or functional assay
T1 sequence (P04141 18-144 limits assumed): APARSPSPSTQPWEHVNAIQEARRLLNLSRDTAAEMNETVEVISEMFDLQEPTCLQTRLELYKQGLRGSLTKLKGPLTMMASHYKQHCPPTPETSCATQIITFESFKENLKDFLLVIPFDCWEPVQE

[2] = target: T1, recombinant human GM-CSF protein; experiment: ELISA, human GM-CSF coated at 1 µg/ml
Description: (§1) Recombinant human or rhesus GM-CSF protein (Genscript) was coated at 1 μg/ml in PBS onto microtiter plates for 2 h at room temperature (RT). After coating of antigen the wells were blocked with PBS/0.05% Tween (PBST) with 1% BSA for 1 h at RT. After washing of the wells with PBST, different concentrations of anti-GM-CSF antibodies were added to the well and incubated for 1 at RT. For detection of the binding antibodies, the HRP-conjugated secondary antibodies against mouse Fc (Jackson Immuno Research) were added, followed by the addition of fluorogenic substrates (Roche). Between all incubation steps, the wells of the plate were washed with PBST three times. Fluorescence was measured in a TECAN Spectrafluor plate reader.

[3] = target: T2, recombinant rhesus GM-CSF protein (rhesus, UniProt Q9GL44 18-144); experiment: ELISA, rhesus GM-CSF coated at 1 µg/ml
T2 construct: Bought recombinant protein (Genscript)
T2 sequence (Q9GL44 entry or part of it limits assumed): as the sequence (P04141 18-144 limits assumed) above, with S9G, E38K, I43V, T53S, R67Q, E104Q counted along it
Description: as §1

[4] = target: T1, recombinant human GM-CSF protein; experiment: SPR Biacore T200, antibody captured by anti-mouse Fc, GM-CSF as analyte, 25 C, 1:1 model
Description: FIG. 4 plots the binding kinetics of 23F4 and 50C5 with recombinant human GM-CSF. […] The binding kinetics assay of antibody to antigen was performed using Biacore T200 system through a mouse antibody capture approach. The anti-mouse Fc IgG were immobilized on CMS sensor chip according to the manufacturer's instruction. The test antibody was injected and captured by the immobilized anti-mouse Fc IgG. And then serial concentrations of the antigen were individually injected, and the binding profile was recorded for each concentration of antigen analyte, respectively. The assay system was regenerated by injection of 10 mM Glycine-HCL pH 1.5 for 30 seconds. The running buffer was HBS-EP+ (10 mM HEPES, pH 7.4, 150 mM NaCl, 3 mM EDTA and 0.05% P20). The assay temperature was 25° C., and the association and dissociation time were 180 and 600 seconds, respectively.

[5] = target: T1, recombinant human GM-CSF protein; experiment: competition ELISA: antibody titrated with biotinylated human GM-CSF (0.05 ug/ml) on coated human GM-CSF receptor alpha (CD116); signal is GM-CSF bound to the receptor
Description: After coating of antigen the wells were blocked with PBS/0.05% Tween (PBST) with 1% BSA for 1 h at RT. After washing of the wells with PBST, different concentrations of anti-GM-CSF antibodies were added to the well in the presence of biotinylated human GM-CSF protein (0.05 μg/ml) and incubated for 1 hr at RT.
For detection of the binding of biotinylated GM-CSF to the coated receptor, the HRP-conjugated Streptavidin was added, followed by the addition of fluorogenic substrates (Roche). Between all incubation steps, the wells of the plate were washed with PBST three times. Fluorescence was measured in a TECAN Spectrafluor plate reader.

Binder | IC50 in the inhibition of TF-1 proliferation [1] [µg/mL] | EC50 [2] [µg/mL] | EC50 [3] [µg/mL] | Kd [4] [nM] | koff [4] [s⁻¹] | kon [4] [M⁻¹ s⁻¹] | IC50 (read off the curve) [5] [µg/mL]
B1 | ~0.0109 | 0.0146 | 0.0217 | 0.0443 | 0.00012 | 2.72e+06 | 
B2 | ~0.0109 | 0.0118 | 0.0102 | 0.0417 | 3.64e-05 | 872000 | ~1
